Assays:
[1] = target: Glucagon(3-29) (Homo sapiens (Human)) (UniProt P01275)
[2] = target: Gln^3-Aβ(3-21)a, Gln^3-amyloid β-peptide(3-21)a (Artificial Sequence)
[3] = target: Gln^3-Aβ(3-11)a, Gln^3-amyloid β-peptide(3-11)a (Artificial Sequence)
[4] = target: Gln^3-Aβ(3-40), Gln^3-amyloid β-peptide(3-40) (Artificial Sequence)

kcat/KM [1]: 526000 M⁻¹ s⁻¹ | kcat/KM [2]: 383000 M⁻¹ s⁻¹ | kcat/KM [3]: 267000 M⁻¹ s⁻¹ | kcat/KM [4]: 449000 M⁻¹ s⁻¹
Substance: recombinant human QC (glutaminyl cyclase) (from UniProt Q16769) (enzyme)
